Data as given in patent US20130109581A1, “POSITIVELY CHARGED SPECIES AS BINDING REAGENTS IN THE SEPARATION OF PROTEIN AGGREGATES FROM MONOMERS” (priority 2009, published 2013).

Tests used:
ASPD (Abeta42 aggregate) = ASPD (Abeta42 aggregate) (UniProt P05067); assay: MPA, serial dilutions in CSF, LoD = 2x over background
Abeta 1-42 monomer [1] = biological target: Abeta 1-42 monomer (UniProt P05067); assay: as above
ADDL (Abeta42 aggregate) = ADDL (Abeta42 aggregate) (UniProt P05067); assay: as above
Abeta 1-42 globulomer [2] = biological target: Abeta 1-42 globulomer (UniProt P05067); assay: as above
Abeta42 fibrils = Abeta42 fibrils (UniProt P05067); assay: as above
Abeta 1-42 globulomer [3] = biological target: Abeta 1-42 globulomer (UniProt P05067); assay: MPA, pulldown in CSF, no added detergent wash
Abeta 1-42 globulomer [4] = biological target: Abeta 1-42 globulomer (UniProt P05067); assay: MPA, PSR1 beads, globulomer spiked into normal CSF
Abeta 1-42 monomer [5] = biological target: Abeta 1-42 monomer (UniProt P05067); assay: MPA, unspiked CSF background, ZW3-16 wash
Abeta 1-42 globulomer [6] = biological target: Abeta 1-42 globulomer (UniProt P05067); assay: MPA, CSF + 0.5 ng/mL globulomer, ZW3-12 wash
Abeta 1-42 monomer [7] = biological target: Abeta 1-42 monomer (UniProt P05067); assay: MPA, unspiked CSF background, ASB-14 wash
Abeta 1-42 globulomer [8] = biological target: Abeta 1-42 globulomer (UniProt P05067); assay: MPA, globulomer Abeta 42 RLU over average Abeta 40 RLU, ZW3-12 wash
Abeta 1-42 globulomer [9] = biological target: Abeta 1-42 globulomer (UniProt P05067); assay: MPA, globulomer Abeta 42 RLU over average Abeta 40 RLU, Brij 35 wash
Abeta 1-42 monomer [10] = biological target: Abeta 1-42 monomer (UniProt P05067); assay: MPA, unspiked CSF background, ASB-C8phn wash
Abeta 1-42 globulomer [11] = biological target: Abeta 1-42 globulomer (UniProt P05067); assay: 42 (globulomer) RLU over 40 (Abeta 1-40 monomer) RLU
Abeta 1-42 globulomer [12] = biological target: Abeta 1-42 globulomer (UniProt P05067); assay: MPA, CSF + 0.5 ng/mL globulomer, ASB-C8phn wash
Abeta 1-42 globulomer [13] = biological target: Abeta 1-42 globulomer (UniProt P05067); assay: MPA, CSF + 0.5 ng/mL globulomer, ASB-16 wash
Abeta 1-42 globulomer [14] = biological target: Abeta 1-42 globulomer (UniProt P05067); assay: MPA, 0.5 over 0 ng/mL globulomer in CSF, ZW3-08 wash
Abeta 1-42 globulomer [15] = biological target: Abeta 1-42 globulomer (UniProt P05067); assay: MPA, CSF + 0.5 ng/mL globulomer, Empigen wash
Abeta 1-42 globulomer [16] = biological target: Abeta 1-42 globulomer (UniProt P05067); assay: MPA, 0.5 over 0 ng/mL globulomer in CSF, ZW3-12 wash
Abeta 1-42 monomer [17] = biological target: Abeta 1-42 monomer (UniProt P05067); assay: MPA, unspiked CSF background, Pluronic F-127 wash
Abeta 1-42 monomer [18] = biological target: Abeta 1-42 monomer (UniProt P05067); assay: MPA, unspiked CSF background, ZW3-14 wash
Abeta 1-40 monomer = Abeta 1-40 monomer (UniProt P05067); assay: MPA bead capture, Abeta 1-40 read-out of the CSF sample (noise)
Abeta 1-42 globulomer [19] = biological target: Abeta 1-42 globulomer (UniProt P05067); assay: MPA, CSF + 0.5 ng/mL globulomer, ZW3-16 wash
Abeta 1-42 monomer [20] = biological target: Abeta 1-42 monomer (UniProt P05067); assay: MPA, unspiked CSF background, ZW3-12 wash
Abeta 1-42 globulomer [21] = biological target: Abeta 1-42 globulomer (UniProt P05067); assay: MPA, 0.5 over 0 ng/mL globulomer in CSF, ASB-14 wash
Abeta 1-42 monomer [22] = biological target: Abeta 1-42 monomer (UniProt P05067); assay: MPA, unspiked CSF background, ZW3-08 wash
Abeta 1-42 monomer [23] = biological target: Abeta 1-42 monomer (UniProt P05067); assay: MPA, unspiked CSF background, Empigen wash
Abeta 1-42 globulomer [24] = biological target: Abeta 1-42 globulomer (UniProt P05067); assay: MPA, 0.5 over 0 ng/mL globulomer in CSF, Brij 35 wash
Abeta 1-42 globulomer [25] = biological target: Abeta 1-42 globulomer (UniProt P05067); assay: MPA, pulldown in CSF, 1% TW20 wash
Abeta 1-42 globulomer [26] = biological target: Abeta 1-42 globulomer (UniProt P05067); assay: MPA, PSR1 beads, globulomer spiked into buffer (TBSTT)
Abeta 1-42 globulomer [27] = biological target: Abeta 1-42 globulomer (UniProt P05067); assay: MPA, 0.5 over 0 ng/mL globulomer in CSF, ASB-16 wash
Abeta 1-42 globulomer [28] = biological target: Abeta 1-42 globulomer (UniProt P05067); assay: MPA, globulomer Abeta 42 RLU over average Abeta 40 RLU, ASB-C8phn wash

PSR1 (peptoid, directly conjugated to Dynal M270 beads)
LoD (amol) (ASPD (Abeta42 aggregate)): 20 amol
LoD (Abeta 1-42 monomer [1]): 1000 pg/mL
LoD (amol) (Abeta 1-42 monomer [1]): 22000 amol
LoD (ADDL (Abeta42 aggregate)): 200 pg/mL
LoD (amol) (ADDL (Abeta42 aggregate)): 20 amol
LoD (Abeta 1-42 globulomer [2]): 75 pg/mL
LoD (amol) (Abeta 1-42 globulomer [2]): 140 amol
LoD (Abeta42 fibrils): 50 pg/mL
LoD (amol) (Abeta42 fibrils): < 2 amol
LoD of globulomer, RLU (S/N = 2) (Abeta 1-42 globulomer [3]): 456 RLU
LoD of globulomer, pg/mL (Cal) (Abeta 1-42 globulomer [3]): 6.16 pg/mL
S/N at 25.3 pg/mL (Abeta 1-42 globulomer [3]): 5.7
limit of detection (LoD) (Abeta 1-42 globulomer [4]): 10 pM
Abeta 42 RLU, 0 ng/mL Average (Abeta 1-42 monomer [5]): 67 RLU
Abeta 42 RLU, 0.5 ng/mL Average (Abeta 1-42 globulomer [6]): 642 RLU
Abeta 42 RLU, 0 ng/mL Average (Abeta 1-42 monomer [7]): 89.7 RLU
S/N Abeta 42 globulomer-spiked/Abeta 40 (Abeta 1-42 globulomer [8]): 1.4
S/N Abeta 42 globulomer-spiked/Abeta 40 (Abeta 1-42 globulomer [9]): 1
Abeta 42 RLU, 0 ng/mL Average (Abeta 1-42 monomer [10]): 101 RLU
42:40 ratio (Abeta 1-42 globulomer [11]): 4.1
Abeta 42 RLU, 0.5 ng/mL Average (Abeta 1-42 globulomer [12]): 936 RLU
Abeta 42 RLU, 0.5 ng/mL Average (Abeta 1-42 globulomer [13]): 789 RLU
S/N Abeta 42 globulomer-spiked/unspiked (Abeta 1-42 globulomer [14]): 6.8
Abeta 42 RLU, 0.5 ng/mL Average (Abeta 1-42 globulomer [15]): 670 RLU
S/N Abeta 42 globulomer-spiked/unspiked (Abeta 1-42 globulomer [16]): 7.1
Abeta 42 RLU, 0 ng/mL Average (Abeta 1-42 monomer [17]): 117 RLU
Abeta 42 RLU, 0 ng/mL Average (Abeta 1-42 monomer [18]): 110 RLU
average RLU (40) (Abeta 1-40 monomer): 234 RLU
Abeta 42 RLU, 0.5 ng/mL Average (Abeta 1-42 globulomer [19]): 731 RLU
Abeta 42 RLU, 0 ng/mL Average (Abeta 1-42 monomer [20]): 90.7 RLU
S/N Abeta 42 globulomer-spiked/unspiked (Abeta 1-42 globulomer [21]): 8.7
Abeta 42 RLU, 0 ng/mL Average (Abeta 1-42 monomer [22]): 97.7 RLU
Abeta 42 RLU, 0 ng/mL Average (Abeta 1-42 monomer [23]): 76.7 RLU
S/N Abeta 42 globulomer-spiked/unspiked (Abeta 1-42 globulomer [24]): 6.3
LoD of globulomer, RLU (S/N = 2) (Abeta 1-42 globulomer [25]): 211 RLU
LoD of globulomer, pg/mL (Cal) (Abeta 1-42 globulomer [25]): 2.52 pg/mL
S/N at 25.3 pg/mL (Abeta 1-42 globulomer [25]): 11
limit of detection (LoD) (Abeta 1-42 globulomer [26]): 5 pM
S/N Abeta 42 globulomer-spiked/unspiked (Abeta 1-42 globulomer [27]): 8.2
S/N Abeta 42 globulomer-spiked/Abeta 40 (Abeta 1-42 globulomer [28]): 1.4
